Results taken from patent US20230212319A1, “NOVEL ANTIGEN BINDING DOMAINS AND SYNTHETIC ANTIGEN RECEPTORS INCORPORATING THE SAME” (University of Southern California, priority 2020, published 2023).

Experiments:
[1] = test system: target cell lines expressing a non-secretory form of a luciferase; experiment: Assay for cytotoxic activity (Matador assay, luciferase release); format: cell-based; details: TRAC-targeted T cells, versus construct SEQ ID NO: 23329
Protocol: Cell lines engineered to express luciferases (e.g., GLuc or NLuc) for measuring cytotoxicity of different constructs targeting different cell surface and intracellular antigens are provided in Table C-1. Cells were cultured at 37° C., in a 5% CO2 humidified incubator. The cell lines were obtained from ATCC, NIH AIDS reagent program or were available in the laboratory.
The generation of Chimeric antigen receptor (e.g., 2nd generation CARs, SIRs, Ab-TCR and TFP etc.), the generation and use of GGS-NLuc fusion proteins (Topanga and Malibu-Glo assays), and the generation and use of luciferase (e.g., GLuc) reporter cell lines for measurement of cellular cytotoxicity using the Matador assays have been described (PCT/US2017/024843, PCT/US2017/025602, PCT/US2017/052344, PCT/US2017/064379 and PCT/US2018/53247).
(C) Assay for Cytotoxic Activity in vitro and in vivo: The uninfected T cells or those expressing a control vector or SAR are cocultured with the target cell lines expressing a non-secretory form of a luciferase (such as GLuc, NLuc, Turboluc 16 etc.) for 4-96 hours and induction of cell lysis examined by measuring the luciferase activity as described in PCT/US17/52344.

target cells = experiment: Xenograft model in immunodeficient mice; format: in vivo; details: TRAC-targeted T cells, versus construct SEQ ID NO: 23329
Excerpt: Animal models can also be used to measure SAR activity. For example, xenograft model using human cancer associated antigen described herein-specific SAR^+ T cells to treat a primary human pre-B-ALL in immunodeficient mice can be used. Dose dependent SAR treatment response can be evaluated. See, e.g., Milone et al., Molecular Therapy 17(S): 1453-1464 (2009). Assessment of cell proliferation and cytokine production has been previously described, e.g., at Milone et al., Molecular Therapy 17(S): 1453-1464 (2009). Cytotoxicity can be assessed by a standard ^51Cr-release assay or Matador assay. Imaging technologies can be used to evaluate specific trafficking and proliferation of SIRs in tumor-bearing animal models.
The cells expressing the SAR constructs are exposed to RAJI and L363 target cells and tested in functional assays as described above. […] It is also observed that co-expression of the constant chains of both TCRγ and TCRδ can also rescue the expresson of SARs on TFP backbone in αβ T cells in which the expression of endogeneous TCRα and/or TCRβ constant chains has been eliminated by insertion of the SAR expresson cassette at the endogenous TRAC or/and TRBC loci. Exemplary constructs to express TCRγ and TCRδ chains are provided in SEQ ID NO: 23333 and 23334, respectively.

RAJI cells = experiment: JNG assay, co-culture with RAJI cells; format: cell-based; details: JNG cells expressing construct, co-culture with Raji
Method in brief: (§1)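 Jurkat NFAT-GFP (JNG) cells stably transduced with SARs by lentivirus, with drug selection where the construct carried a resistance gene, then co-cultured with target cells at E:T ~1:2 for ~4–18 h. % GFP-positive cells measured by FACS against parental JNG; +/- to 5+ correspond to ~5–50% GFP-positive.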

L363 cells = experiment: JNG assay, co-culture with L363 cells; format: cell-based; details: co-culture with L363
Method in brief: as §1

Raji-CD22-KO = experiment: JNG NFAT-GFP assay, co-culture with Raji-CD22-KO cells; format: cell-based
U266 cells = experiment: JNG NFAT-GFP induction on co-culture with U266; format: cell-based
Nalm6 cells = experiment: JNG assay, co-culture with Nalm6 cells; format: cell-based; details: co-culture with Nalm6
Method in brief: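 Values are semi-quantitative grades of GFP induction, each step approximating 10% more GFP+ cells (5+ ≈50%) above parental reporter cells, measured by FACS after SAR-transduced JNG cells were cultured with targets at ~1:2 E:T for ~4–18 h.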

HepG2 cells = format: cell-based

B1: SEQ ID NO: 23330: targeting construct coexpressing a TCRα constant chain with a SAR on TFP backbone targeting BCMA and CD22, directed to the TRAC locus (protein)
chain: FKIPIEELEDRVFVNCNTSITWVEGTVGTLLSDITRLDLGKRILDPRGIYRCNGTDIYKDKESTVQVHYRMCQSCVELDPATVA
cytotoxicity [1]: greater | in vivo anti-tumor activity against the target cells (target cells): greater

B2: 22146 (protein)
chain: MALPVTALLLPLALLLHAARPACEVQLLESGGGLIQPGGSLRLSCAASGFTFSSHAMTWVRQAPGKGLEWVSAISGSGDYTHYADSVKGRFTISRDNSKNTVYLQMNSLRAEDSAVYYCAKDEDGGSLLGHRGQGTLVTVSSGTGGGGSGGGGSGGGGSEFDIQMTQSPSSLSASVGDRVTITCRASQDISNYLNWYQQKPGKAVKLLIYYTSILHSGVPSRFSGSGSGTDYTLTISSLQPEDFATYFCQQGNTLPWTFGGGTKVEIKLEGQPKANPTVTLFPPSSEELQANKATLVCLISDFYPGAVTVAWKADGSPVKAGVETTKPSKQSNNKYAASSYLSLTPEQWKSHRSYSCQVTHEGSTVEKTVAPTECSGRADCGFTSESYQQGVLSATILYEILLGKATLYAVLVSALVLMAMVKRKDSRGRAKRSGSGATNFSLLKQAGDVEENPGPTSATMDWIWRILFLVGAATGAHSGPQVQLQESGGGLAQAGGSLRLSCAASGRTFSMGWFRQAPGKEREFVAAITYSGGSPYYASSVRGRFTISRDNAKNTVYLQMNSLKPEDTAVYYCAANPTYGSDWNAENWGQGTQVTVSSGSGGGGSGGGGSGGGGSFEVQLVESGGGLVKPGGSLKLSCAASGFAFSIYDMSWVRQAPGKGLEWVAYISSGGGTTYYPDTVKGRFTISRDNAKNTLYLQMSSLRAEDTAMYYCARHSGYGSSYGVLFAYWGQGTLVTVSSTRASTKGPSVFPLAPSSKSTSGGTAALGCLVKDYFPEPVTVSWNSGALTSGVHTFPAVLQSSGLYSLSSVVTVPSSSLGTQTYICNVNHKPSNTKVDKRVEPKSCIPEDTFFPSPESSCDVKLVEKSFETDTNLNFQNLSVIGFRILLLKVAGFNLLMTLRLWSSRAKRSGSGVKQTLNFDLLKLAGDVESNPGPSRGHMTEYKPTVRLATRDDVPRAVRTLAAAFADYPATRHTVDPDRHIERVTELQELFLTRVGLDIGKVWVADDGAAVAVWTTPESVEAGAVFAEIGPRMAELSGSRLAAQQQMEGLLAPHRPKEPAWFLATVGVSPDHQGKGLGSAVVLPGVEAAERAGVPAFLETSAPRNLPFYERLGFTVTADVEVPEGPRTWCMTRKPGA
NFAT-GFP ASSAY: Raji (RAJI cells): 2+ (refer to approximately 5%, 10%, 20%, 30%, 40% and 50% GFP positive cells) | NFAT-GFP ASSAY: L363 (L363 cells): + (refer to approximately 5%, 10%, 20%, 30%, 40% and 50% GFP positive cells) | NFAT-GFP ASSAY: Raji-CD22-KO (Raji-CD22-KO): 3+ (refer to approximately 5%, 10%, 20%, 30%, 40% and 50% GFP positive cells) | NFAT-GFP ASSAY: U266 (U266 cells): 2+ (refer to approximately 5%, 10%, 20%, 30%, 40% and 50% GFP positive cells) | NFAT-GFP ASSAY: Nalm6 (Nalm6 cells): +/- (refer to approximately 5%, 10%, 20%, 30%, 40% and 50% GFP positive cells)

B3: 22256 (protein)
chain: MGPRLLFWALLCLLGTGPVEAGVTQSPTHLIKTRGQQATLRCSPISGHTSVYWYQQALGLGLQFLLWYDEGEERNRGNFPPRFSGRQFPNYSSELNVNALELEDSALYLCASSLGGPRGLAGLRGDEQFFGPGTRLTVLEGTGGGGSGGGEFDIQMTQSPSSLSASVGDRVTITCKASDHINNWLAWYQQKPGQAPKLLIYGATTLETGVPSRFSGSGSGTDYTLTISSLQPEDFATYYCQQSWNTPWTFGQGTKLEIKRLEDLKNVFPPEVAVFEPSEAEISHTQKATLVCLATGFYPDHVELSWWVNGKEVHSGVCTDPQPLKEQPALNDSRYCLSSRLRVSATFWQNPRNHFRCQVQFYGLSENDEWTQDRAKPVTQIVSAEAWGRADCGFTSESYQQGVLSATILYEILLGKATLYAVLVSALVLMAMVKRKDSRGRAKRSGSGATNFSLLKQAGDVEENPGPTSATMDWIWRILFLVGAATGAHSGPEVQLVESGGGLVQAGGSLRLSCAASGRTFSMGWFRQAPGKEREFVAAITYSGGSPYYADSVKGRFTISRDNAKNTVYLQMNSLKPEDTAVYYCAANPTYGSDWNAENWGQGTQVTVSSGSGGGGSGGGGSGGGGSFEQVQLQQPGAELVKPGASVKMSCKASGYAFSSYWINWMKQKPGQGLEWIGQIYPGDGDTNYNGKFKGRATLTADTSSSTAYMQLSSLTSEDSAVYFCARSITTVVGCAMDYWGQGTSVTVSSTRIQNPDPAVYQLRDSKSSDKSVCLFTDFDSQTNVSQSKDSDVYITDKCVLDMRSMDFKSNSAVAWSNKSDFACANAFNNSIIPEDTFFPSPESSCDVKLVEKSFETDTNLNFQNLSVIGFRILLLKVAGFNLLMTLRLWSSRAKRSGSGVKQTLNFDLLKLAGDVESNPGPSRGHMTEYKPTVRLATRDDVPRAVRTLAAAFADYPATRHTVDPDRHIERVTELQELFLTRVGLDIGKVWVADDGAAVAVWTTPESVEAGAVFAEIGPRMAELSGSRLAAQQQMEGLLAPHRPKEPAWFLATVGVSPDHQGKGLGSAVVLPGVEAAERAGVPAFLETSAPRNLPFYERLGFTVTADVEVPEGPRTWCMTRKPGA
NFAT-GFP ASSAY: HepG2 (HepG2 cells): RAJI (+/-), HepG2 (-/^+)

B4: 22257 (protein)
chain: MGPRLLFWALLCLLGTGPVEAGVTQSPTHLIKTRGQQATLRCSPISGHTSVYWYQQALGLGLQFLLWYDEGEERNRGNFPPRFSGRQFPNYSSELNVNALELEDSALYLCASSLGGPRGLAGLRGDEQFFGPGTRLTVLEGTGGGGSGGGEFDIQMTQSPSSLSASVGDRVTITCKASDHINNWLAWYQQKPGQAPKLLIYGATTLETGVPSRFSGSGSGTDYTLTISSLQPEDFATYYCQQSWNTPWTFGQGTKLEIKRLEGQPKANPTVTLFPPSSEELQANKATLVCLISDFYPGAVTVAWKADGSPVKAGVETTKPSKQSNNKYAASSYLSLTPEQWKSHRSYSCQVTHEGSTVEKTVAPTECSGRADCGFTSESYQQGVLSATILYEILLGKATLYAVLVSALVLMAMVKRKDSRGRAKRSGSGATNFSLLKQAGDVEENPGPTSATMDWIWRILFLVGAATGAHSGPQVQLQESGGGLAQAGGSLRLSCAASGRTFSMGWFRQAPGKEREFVAAITYSGGSPYYASSVRGRFTISRDNAKNTVYLQMNSLKPEDTAVYYCAANPTYGSDWNAENWGQGTQVTVSSGSGGGGSGGGGSGGGGSFEQVQLQQPGAELVKPGASVKMSCKASGYAFSSYWINWMKQKPGQGLEWIGQIYPGDGDTNYNGKFKGRATLTADTSSSTAYMQLSSLTSEDSAVYFCARSITTVVGCAMDYWGQGTSVTVSSTRASTKGPSVFPLAPSSKSTSGGTAALGCLVKDYFPEPVTVSWNSGALTSGVHTFPAVLQSSGLYSLSSVVTVPSSSLGTQTYICNVNHKPSNTKVDKRVEPKSCIPEDTFFPSPESSCDVKLVEKSFETDTNLNFQNLSVIGFRILLLKVAGFNLLMTLRLWSSRAKRSGSGVKQTLNFDLLKLAGDVESNPGPSRGHMTEYKPTVRLATRDDVPRAVRTLAAAFADYPATRHTVDPDRHIERVTELQELFLTRVGLDIGKVWVADDGAAVAVWTTPESVEAGAVFAEIGPRMAELSGSRLAAQQQMEGLLAPHRPKEPAWFLATVGVSPDHQGKGLGSAVVLPGVEAAERAGVPAFLETSAPRNLPFYERLGFTVTADVEVPEGPRTWCMTRKPGA
NFAT-GFP ASSAY: HepG2 (HepG2 cells): RAJI (2+), HepG2 (-/^+)
